Measured values reported in patent US20240076389A1 (NATIONAL RESEARCH COUNCIL OF CANADA, published 2024).
Changes are numbered by the printed parent chain.

Columns and labels:
[1] = molecular target: T1, recombinant human AXL extracellular domain, C-terminally His8-tagged (rhAXL-ECD) (human, UniProt P30530 26-451); experiment: SPR, steady-state analysis (format not stated)
T1 construct: Made in CHO cells; also called (rh)AXL-ECD His8; human AXL ECD
T1 sequence: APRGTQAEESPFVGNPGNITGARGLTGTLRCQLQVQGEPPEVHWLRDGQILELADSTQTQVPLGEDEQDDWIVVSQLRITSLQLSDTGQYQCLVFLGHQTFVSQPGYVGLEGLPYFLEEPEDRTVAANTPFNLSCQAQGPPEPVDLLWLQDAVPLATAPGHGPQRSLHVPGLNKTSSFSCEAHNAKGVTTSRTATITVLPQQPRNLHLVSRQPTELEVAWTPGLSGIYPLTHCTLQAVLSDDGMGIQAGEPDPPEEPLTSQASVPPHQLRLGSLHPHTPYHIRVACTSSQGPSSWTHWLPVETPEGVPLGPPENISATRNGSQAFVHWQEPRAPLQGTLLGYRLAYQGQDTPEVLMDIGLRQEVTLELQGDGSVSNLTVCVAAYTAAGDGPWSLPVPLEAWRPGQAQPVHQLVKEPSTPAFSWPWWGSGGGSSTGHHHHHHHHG
Protocol: For VH Hs and VHH-Fcs, binding to human and cynomolgus AXL ECD was assessed using either a Biacore T200 instrument or a Biacore 3000 instrument. Either human AXL ECD or anti-human Fc antibody was immobilized on a research-grade CM5 series S sensor chip (T200, rhAXL ECD) or a C1 sensor chip (3000, anti-human Fc) using amine coupling in acetate buffer. VHH-Fcs were captured on anti-human Fc surfaces. Either monomeric VHHs (for rhAXL ECD surfaces) or human and cyno AXL ECD (for VHH-Fc surfaces) were flowed over the surfaces at different concentration ranges. Running buffers were HBS-EP (3000) and HBS-EP+(T200). Flow rates were 10-40 ul/min. All binding studies were performed at 25° C. Surfaces were regenerated using 10 mM glycine, pH 1.5.

[2] = molecular target: T2, mouse AXL extracellular domain (Sino cat. 51026-M08H) (mouse, UniProt Q00993 19-445); experiment: ELISA on coated mouse AXL ECD (100 ng/well)
T2 construct: extracellular domain; Bought protein; also called mouse AXL ECD
T2 sequence (looked up): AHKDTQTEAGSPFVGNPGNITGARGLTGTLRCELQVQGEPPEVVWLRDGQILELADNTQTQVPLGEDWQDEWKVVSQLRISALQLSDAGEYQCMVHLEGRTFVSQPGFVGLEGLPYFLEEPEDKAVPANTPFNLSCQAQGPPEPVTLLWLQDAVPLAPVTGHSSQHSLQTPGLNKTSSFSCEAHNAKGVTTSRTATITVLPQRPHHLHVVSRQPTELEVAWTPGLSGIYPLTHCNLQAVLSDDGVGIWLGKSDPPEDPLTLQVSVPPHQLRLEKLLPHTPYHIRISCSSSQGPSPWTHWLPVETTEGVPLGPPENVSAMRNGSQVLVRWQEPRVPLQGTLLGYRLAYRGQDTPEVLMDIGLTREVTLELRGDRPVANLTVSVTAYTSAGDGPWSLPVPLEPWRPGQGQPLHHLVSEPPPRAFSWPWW
Protocol: (§1) ELISA. ELISAs against human, cyno and mouse AXL ECDs were conducted by immobilizing 100 ng of each protein in wells of Nunc MaxiSorp microplates overnight. Human AXL (aa 1-451) and cyno AXL (aa 1-449) were produced recombinantly as described in Example 10. Mouse AXL was purchased from Sino (cat. 51026-M08H). The next day, plates were blocked with 5% (w/v) dried milk in PBS. Murine mAbs (either hybridoma- or recombinantly-produced) or VHH-Fcs were diluted in PBS containing 1% BSA and 0.1% Tween-20 and added to wells for 2 hours at room temperature. Wells were washed 5× with PBS containing 0.1% Tween-20, then HRP-labeled protein A (diluted 1:1000 in PBS containing 1% BSA and 0.1% Tween™-20) was added to wells for 1 hour at room temperature. Wells were washed again 5× with PBS/0.1% Tween-20 and developed using TMB substrate. Absorbance was measured at 450 nm. As a positive control for mouse AXL binding, a commercial anti-mouse AXL mAb (clone 175128, R&D Systems MAB8541, rat IgG2A) was used and detected with donkey […] secondary antibody.

[3] = molecular target: T1, recombinant human AXL extracellular …; experiment: ELISA on coated AXL ECD (100 ng/well), HRP-protein A
Protocol: as §1

[4] = molecular target: T3, human AXL expressed on the cell surface of tumor cell lines (human, UniProt P30530 26-894); experiment: FACS on MDA-MB-231 luciferase cells, apparent Kd
T3 construct: whole, on cells; also called cell surface-expressed AXL; cell-based AXL
T3 sequence (looked up): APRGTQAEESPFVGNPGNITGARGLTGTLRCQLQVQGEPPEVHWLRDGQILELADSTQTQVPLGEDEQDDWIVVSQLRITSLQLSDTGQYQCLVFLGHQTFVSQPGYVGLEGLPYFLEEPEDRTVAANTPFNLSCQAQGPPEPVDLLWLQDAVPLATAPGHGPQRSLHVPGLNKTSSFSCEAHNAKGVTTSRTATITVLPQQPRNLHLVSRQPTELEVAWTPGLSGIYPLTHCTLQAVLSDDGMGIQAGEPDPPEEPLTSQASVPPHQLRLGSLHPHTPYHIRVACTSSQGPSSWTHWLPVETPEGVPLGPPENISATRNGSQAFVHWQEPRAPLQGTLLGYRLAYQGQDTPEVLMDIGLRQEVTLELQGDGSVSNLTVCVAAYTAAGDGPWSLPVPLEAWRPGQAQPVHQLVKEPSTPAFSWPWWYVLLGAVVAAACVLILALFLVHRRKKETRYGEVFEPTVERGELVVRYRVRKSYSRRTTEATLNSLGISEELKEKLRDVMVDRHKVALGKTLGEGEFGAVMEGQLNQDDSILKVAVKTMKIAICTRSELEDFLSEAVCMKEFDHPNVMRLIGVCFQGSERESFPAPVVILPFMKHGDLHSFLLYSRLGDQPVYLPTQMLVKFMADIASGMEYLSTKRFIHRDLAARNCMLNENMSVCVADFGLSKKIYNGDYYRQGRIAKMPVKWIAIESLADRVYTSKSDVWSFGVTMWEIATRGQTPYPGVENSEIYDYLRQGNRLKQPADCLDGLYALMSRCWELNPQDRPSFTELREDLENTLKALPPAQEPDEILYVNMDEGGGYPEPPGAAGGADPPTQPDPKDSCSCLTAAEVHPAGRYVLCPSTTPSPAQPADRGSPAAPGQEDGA
Protocol: (§2) FACS binding assay. Adherent cells were dissociated with non-enzymatic Sigma Cell Dissociation Solution (Cat. No. C5789). Cells suspensions were added to polypropylene, V-bottom 96-well plates and incubated for 2 hours on ice with primary antibodies at concentrations ranging from 100 nM to 0.001 nM or at a single dose of 100 nM (for the non-specific control). After incubation and washes, cells were incubated with fluorescently labeled secondary antibody (Alexa Fluor® 488 anti-human IgG from Jackson Cat. No 709-546-098) for 1 hour on ice, then washed. Cell viability was determined using Fixable viability dye 450 (20 min on ice). Stained cells were fixed in 1% formaldehyde at 4° C. and stored at 4° C. until acquisition which was performed the next day.
(§3) Binding of recombinant chimeric Abs to three cell lines was assessed by FACS as described above. The apparent Bmax and Kd determination is shown below in Table 14.

[5] = molecular target: T1, recombinant human AXL extracellular …; experiment: SPR Biacore T200, mAb captured on anti-Fc, AXL ECD flowed, single-cycle kinetics
Protocol: (§4) Surface plasmon resonance. For murine mAbs, binding to human and cynomolgus AXL ECD was assessed using a Biacore T200 instrument. Briefly, either anti-mouse or anti-human Fc antibody was immobilized on a research-grade CM5 series S sensor chip using amine coupling in acetate buffer. Murine or recombinant chimeric murine-human mAbs (mouse VH/VL; human constant regions) were captured, then recombinant human or cyno AXL ECD was flowed over the surface at different concentration ranges (0.1-500 nM) depending on the antibody. The running buffer was PBS/Tween-20 and the flow rate 100 uL/min. All binding studies were performed at 25° C. Surfaces were regenerated using 10 mM glycine, pH 1.5.

[6] = molecular target: T4, recombinant cynomolgus AXL extracellular domain (cynomolgus); experiment: as above
T4 construct: range 1-449; also called Cyno AXL; cyno AXL ECD
Protocol: as §4

[7] = molecular target: T4, recombinant cynomolgus AXL …; experiment: SPR Biacore T200, mAb captured on anti-Fc, AXL ECD flowed, steady-state analysis
Protocol: as §4

[8] = molecular target: T3, human AXL expressed on the cell surface …; experiment: FACS on NCI-H292 cells, apparent Kd
Protocol: as §2, §3

[9] = molecular target: T3, human AXL expressed on the cell surface …; experiment: FACS on SKOV3 cells, apparent Kd
Protocol: as §2, §3

[10] = molecular target: T1, recombinant human AXL extracellular …; experiment: SPR Biacore T200, mAb captured on anti-Fc, AXL ECD flowed (no footnote in the cell)
Protocol: as §4

B1: NRC-sdAb002 (VHH monomer) (VHH)
VHH: QVQLVDSGGGLVQAGGSLRLSCATSTRTVSSAVMAWFRQAPEKVRDFVGFITNSGNILYDDSVKGRFTISRDNAQNTVYLQMNSLKPEDTAVYYCAAKWSFSSGYGDLRRAAMYDYWGQGTQVTVSS
notes: Llama VHH monomer; not shown: 6xHis and Myc tags
[1]
  Kd: 96 nM

B2: hFC-F111-5E9 (antibody, human IgG1, kappa, V domains shown)
VH: QIQLVQSGPELKKPGETVKISCKASGYTFTKYGMNWVKQAPGKGLKWMGWINTYTGEPTYADDFKGRFAFSLETSASTAYLQINNLTTEDMVTYFCAKGGYYSNPIYPMDYWGQGTSVTVSS
VL: DIQMTQTTSSLSASLGDRVTISCRASQDINNYLNWYQQKPDGTVKLLIYYISRLHSGVPSRFSGSGSGTDYSLTISNLELEDVATYFCQQGNTLPFTFGSGTKLEIKR
notes: Chimeric mAb, human IgG1 / human kappa constant regions; also called mAb F111-5E9; hIgG-F111-5E9
[2]
  binding result: no binding
[3]
  EC50: 2 nM
[4]
  Kd: 0.366 nM
[5]
  Kd: 2 nM
  koff: 0.0018 s⁻¹
  kon: 780000 M⁻¹ s⁻¹
[6]
  Kd: 4 nM
  koff: 0.0027 s⁻¹
  kon: 690000 M⁻¹ s⁻¹

B3: hFC-F107-8D12 (antibody, human IgG1, kappa, V domains shown)
VH: QVQLQQPGAELVKPGASVQLSCKASGYTFISFWINWVKQRPGQGLEWMGNIFPGSSSTNYNEKFKSKATLTVDKSSSTAYMQLSSLTSEDSAVYFCARDYYGGSPDYWGQGTTLTVSS
VL: DIVMSQSPSSLAVSAGERVTMSCKSSQSLLNTRTRKNYLAWYQQKPGQSPKLLIYWASTRESGVPDRFTGSGSGTDFTLTISSVQAEDLAVYYCKQSYNLWTFGGGTKLEIKR
notes: Chimeric mAb, human IgG1 / human kappa constant regions; also called mAb F107-8D12; chimeric F107-8D12
[2]
  binding result: no binding
[3]
  EC50: 1 nM
[5]
  Kd: 5 nM
  koff: 0.013 s⁻¹
  kon: 2.7e+06 M⁻¹ s⁻¹
[7]
  Kd: 1840 nM

B4: hFC-F107-7H5 (antibody, human IgG1, kappa, V domains shown)
VH: QVQLQQPGAELVKPGASVKLSCKASGYTFTSYWINWVKQRPGQGLEWIGNIYPDSSSTNYNEKFKSKATLTVDKSSTTAYIQFSSLTSEDSAVYYCTRDTYGGSPDYWGQGTTLTVSS
VL: B3 VL with R18K, T32S, N37I, E61Q
notes: Chimeric mAb, mouse VH/VL on human IgG1 heavy and human kappa light constant regions, made in CHO cells; also called mAb F107-7H5; hIgG-F107-7H5
[8]
  Kd: 0.0509 nM
[2]
  binding result: no binding
[3]
  EC50: 6 nM
[4]
  Kd: 0.17 nM
[9]
  Kd: 0.07 nM
[5]
  Kd: 1 nM
[7]
  Kd: 925 nM
[10]
  koff: 0.0015 s⁻¹
  kon: 1.4e+06 M⁻¹ s⁻¹
